The values below come from the nanobody polyreactivity screen of Harvey et al. (2022).

The nature of the data set: yeast display, Sf9 membrane polyspecificity reagent, FACS + sequencing; frameworks hold sequencing errors. The method, boiled down: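 Galactose-induced (36–48 hours) yeast carrying a synthetic nanobody display library were exposed to 10% biotinylated, detergent-solubilized Sf9 membrane reagent at 4 °C for 1 hour. FACS followed streptavidin microbead enrichment, using low and high (top ~1%) gates for expression (anti-HA) and reagent binding (streptavidin). Colony PCR, MiSeq 2 × 250 sequencing and CDR-length filtering followed. Labels for polyreactivity reflect the gate of origin.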
With “QVQLVESVGGLVQAGGSLRLSCAASALAMGWYRHAPGKERELVAVITSDGRTYYADSVKGRFTISRDNAKNTVYLQMNSLKPEDTAVYYCARDSRTIRYYAWFYPFRYDYWGQGTQVTVSS”, the “polyreactivity (PSR sort gate)” value was “low polyreactivity”. In the case of “QVQLVESVGGLVQAGGSLRLSCAASALTFQNNAMGWYRQAPGKEREFVATITSVGRTNYADSVKGRFTISRDNAKNTVYLQMNSLNPEDTAVYYCAASKARWPRGGSKYYYWGQGTQVTVSS”, the “polyreactivity (PSR sort gate)” value is listed as “high polyreactivity”. On to “QVQLVESVGGLVQAGGSLRLSCAASGFIFASYAMGWYRQAPGKERELVAAISWRGGSTYYADSVKGRFTISRDNAKNTVYLQMNSLKPEDTAVYYCKAYVYVGTGRGYDTLDYWGQGTQVTLSS”, for which the “polyreactivity (PSR sort gate)” value was “low polyreactivity”. To “QVQLVESVGGLVQAGGSLRLSCAASGFIFSPYAMGWYRQAPGKERELVAAISWNGGRTYYADSVKGRFTISRDYAKNTVYLQMNSLKPEDTAVYYCAASFRNPYSHGYWGQGTQVTVSS” belongs “high polyreactivity”; to “QVQLVESVGGLVQAGGSLRLSCAASGFILRVNDMGWYRQAPGKERELVAAISQGDGSTYYADSVKGRFTISSDNAKNSVYLQMNSLKPEDNAVYYCNAELYRDLGGYDHWGQGTQVTVSS”, “low polyreactivity”; to “QVQLVESVGGLVQAGGSLRLSCAASGFTFARYAMGWYIQAPGKERELVAAISISGGRTYYADSVKGRFTISRDNAKNTVYLQMNSLKPEDTAVYYCNKGHVPSYDYNYWGQGTQVTVSS”, “high polyreactivity”. To “QVQLVESVGGLVQAGGSLRLSCAASGFTFHAYAMGWYRQAPGKERELVAVITRGGSTYYADSVKRRFTISLDNAKNTVYLQMKSLKPEDTAVYYCAAVRTKDWRGPEMDYWGQGTQVTVSS” belongs “high polyreactivity”; to “QVQLVESVGGLVQAGGSLRLSCAASGFTFVYNAMGWYRQAPGKEREMVAAISSRGGSTFYADSVKGRFTISRDNAKNTVYLQMNSLKPEDTAVYYCNAVPGWTYDYWGQGTQVTVSS”, “high polyreactivity”. Turning to “QVQLVESVGGLVQAGGSLRLSCAASGITFGYNAMGWYRQAPGKERELVASISYSGDSTYYADSVKGRFTISRDNAKNSVYLQMNSLKPEDTGVYYCAAGRQVLKRRYDYWGQGTQVTVSS”, the “polyreactivity (PSR sort gate)” value is “low polyreactivity”.

As for “QVQLVESVGGLVQAGGSLRLSCAASGITFYGYTMGWYIQAPGKERELVAAITSGGITYYADSVKGRFTISRDNAKNTVYLQMNSLKPEDTAVYYCAARRYCYTSITWYDYWGQGTQVTVSS”, the “polyreactivity (PSR sort gate)” value was “high polyreactivity”.

“QVQLVESVGGLVQAGGSLRLSCAASGITFYYYVMGWYRQAPGKERELVAAIDTGDSTYYADSVKGRFTISRDNAKNTVYLQMNSLKPEDTAVYYCAVDYEADNELNGPDQEYGRDSWGQGTQVTVSS”: the “polyreactivity (PSR sort gate)” value is given as “low polyreactivity”. As for “QVQLVESVGGLVQAGGSLRLSCAASGLIFLVNAMGWYRQAPGKERELVAAIDRDGGITYADSVKGRFTISRDNAKNTVYLQLNSLKPEDTAVYYCAADPSSYGRFTYDYWGQGTQVTVSS”, the “polyreactivity (PSR sort gate)” value was “low polyreactivity”. On to “QVQLVESVGGLVQAGGSLRLSCAASGLTFYVYAMGRYRQAPGKERELVAAITQNGGTTYYADSVKGRFTISRDNAKNTVYLQMNSLKPEDTAVYNCAARRLYAGHQYDYWGQGTQVTVSS”, for which the “polyreactivity (PSR sort gate)” value is reported as “high polyreactivity”.

Turning to “QVQLVESVGGLVQAGGSLRLSCAASGNTFYAYAMGWYRQAPGKERELVAAIRKSGGNTYYADSVKGRFTISRYNAKNNVYLQMYSLKPEDTAVYYCAARYRGYAFLNYDYWGQGTQVTVSS”, the “polyreactivity (PSR sort gate)” value is given as “low polyreactivity”.

With “QVQLVESVGGLVQAGGSLRLSCAASGRIFAPYAMGWYRQAPGKERELVAAIRWRGGSTSYADSVKGRFTISRDNAKNTVYLQMNSLKPEDTAVYYCNADYGFSFYWYDYWGQGTQVTVSS”, the “polyreactivity (PSR sort gate)” value is recorded as “low polyreactivity”. Next, “QVQLVESVGGLVQAGGSLRLSCAASGRIFARYAMGWYRQAPGKERELVAAITKSVGSTYYADSVKGRFTISRDNAKKTVYLQMNSLKPEDTAVYYCARVVADSEYDYWGQGTQVTVSS”: “high polyreactivity”.
